Laboratory results taken from patent US20240093310A1 (Dana-Farber, published 2024).

Experiments:
[1] = target: T1, C-RAF P261T resistance mutant (human, UniProt P04049 1-648); assay: C-RAF immunoprecipitation, 14-3-3ζ immunoblot, 293T and A375 cells, no RAF inhibitor (FIG. 7A, 7B)
T1 construct: His/V5- or Flag-tagged in the homodimerization assays

[2] = target: T2, C-RAF S257P resistance mutant (human, UniProt P04049 1-648); assay: as above
T2 construct: His/V5- or Flag-tagged in the homodimerization assays

[3] = target: T3, C-RAF G361A resistance mutant (human, UniProt P04049 1-648); assay: as above
T3 construct: His/V5- or Flag-tagged in the homodimerization assays; also called 361G>A

wild-type human C-RAF = target: T4, wild-type human C-RAF (human, UniProt P04049 1-648); assay: C-RAF immunoprecipitation, 14-3-3ζ immunoblot, A375 cells with and without 2 µM vemurafenib (FIG. 7B)
T4 construct: In the homodimerization assays the copies carried a His/V5 tag or a Flag tag; also called WT-C-RAF; C-RAF (WT)

Measured: binding result

B1: 14-3-3 ζ (other, UniProt P63104 1-245, looked up)
chain: MDKNELVQKAKLAEQAERYDDMAACMKSVTEQGAELSNEERNLLSVAYKNVVGARRSSWRVVSSIEQKTEGAEKKQQMAREYREKIETELRDICNDVLSLLEKFLIPNASQAESKVFYLKMKGDYYRYLAEVAAGDDKKGIVDQSQQAYQEAFEISKKEMQPTHPIRLGLALNFSVFYYEILNSPEKACSLAKTAFDEAIAELDTLSEESYKDSTLIMQLLRDNLTLWTSDTQGDEAEAGEGGEN
notes: The Western blot methods list a 14-3-3ζ antibody (Cell Signaling)
binds: [1] | [2] | [3] | wild-type human C-RAF
